This is an account of results in PMC6179904 (Developmental Cell, 2018).

Where no end group is shown, it is not given here. The star is where a group is joined. Fluorescin = fluorescein label at the C-terminus, before the amide; Myristoyl = CCCCCCCCCCCCCC(=O)*

The target of this test is full-length UNC119A (UniProt Q13432 1-240). The test is described as follows: fluorescence polarisation.
As to Myristoyl-GSNKSKPKDASQ (also: fluorescein label, position not given here) [c-SRC (Myr-GSNKSKPKDASQ) fluorescein-labeled myristoylated peptide], the Kd is 125 ± 69 nM.
Myristoyl-GNLESAEGVPGE-{Fluorescin-NH2} [fluorescein-labeled myristoylated FMNL3 peptide (Myr-GNLESAEGVPGE-Fluorescin-amide)] had a Kd of 856 ± 156 nM.
On to Myristoyl-GNAAGSAEQPAG-{Fluorescin-NH2} [fluorescein-labeled myristoylated FMNL1 peptide (Myr-GNAAGSAEQPAG-Fluorescin-amide)], for which the Kd was 10.1 ± 3.5 nM.

A word on the Kd: it is the free concentration of one partner at which half of the binding sites on the other are occupied at equilibrium, for simple one-to-one binding.
